{"source": "patent US11493476B2", "about": "“Charge detector and process for sensing a charged analyte” (Government of the United States of America, as represented …, priority 2016, dated 2022)", "type_in_all_cases": "biochemical", "key": {"Cdk5/p25 [1]": {"target": "T1, Cdk5/p25 (Homo sapiens, UniProt Q00535)", "T1 sequence (Q00535 whole entry, species assumed)": "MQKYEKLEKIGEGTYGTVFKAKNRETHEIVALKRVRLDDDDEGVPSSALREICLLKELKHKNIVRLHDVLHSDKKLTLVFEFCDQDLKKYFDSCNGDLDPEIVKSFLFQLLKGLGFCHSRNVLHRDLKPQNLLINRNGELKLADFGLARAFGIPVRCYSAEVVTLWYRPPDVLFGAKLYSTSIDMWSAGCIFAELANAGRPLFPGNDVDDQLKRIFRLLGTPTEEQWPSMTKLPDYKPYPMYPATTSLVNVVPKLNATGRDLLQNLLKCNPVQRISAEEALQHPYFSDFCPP", "T1 sequence (Q15078 99-307 partner limits assumed, species assumed)": "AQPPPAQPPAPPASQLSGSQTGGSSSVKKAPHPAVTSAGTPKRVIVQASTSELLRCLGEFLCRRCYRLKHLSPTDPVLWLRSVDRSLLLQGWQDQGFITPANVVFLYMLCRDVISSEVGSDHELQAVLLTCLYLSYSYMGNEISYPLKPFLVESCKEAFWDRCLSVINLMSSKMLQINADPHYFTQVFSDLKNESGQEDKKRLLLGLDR", "assay": "Radioactively labeled γ-32P-ATP enzyme activity assay", "details": "radioactively labeled γ-32P-ATP assay"}, "Cdk5/p25 [2]": {"target": "T1, Cdk5/p25", "assay": "Ionic liquid-gated FET measurement of solution pH change during Cdk5/p25-catalysed phosphorylation of histone H1, steady state", "details": "FET measurements, non-linear regression, measured differentially against control without ATP", "text": "With regard to enzyme activity and kinetics, the ultrasensitive FET devices measured activity and kinetics of proline directed kinase Cdk5. Under normal physiological conditions, Cdk5 is tightly regulated by either the p35 or p39 […] proteins. Oxidative stress causes a 10 kDa membrane anchored fragment of p35 to be cleaved, forming the pathological activator p25, resulting in deregulation and delocalization of the complex to the cytosol. […]\nCdk5 mediated phosphorylation results in the release of a proton during ATP hydrolysis and the transfer of a single phosphate group to either a serine or threonine residue immediately preceding a proline. Here, ionic liquid-gated FETs detected small changes in the solution pH during phosphorylation of the substrate protein, histone H1.\nIn each case, Vt,BG was estimated from an ID-VBG plot. To account for instrument drift, each data point in the figure was measured differentially with a control sample that was identical to the measured vials except for the absence of ATP, thereby inhibiting the phosphorylation reaction. […]\n[formula] where k is a constant, [H1] is the concentration of histone H1 and γ is a scaling constant. For the FET measurements in FIG. 54, we estimated k=17.5±1.3 μM from a non-linear regression of the model to the measured data, consistent with previously published activity measurements for the pathological Cdk5/p25 complex. […]"}, "Cdk5/p25 [3]": {"target": "T1, Cdk5/p25", "assay": "FET time-series measurement of enzyme catalyzed phosphorylation (reaction kinetics)", "details": "Cdk5/p25 3.8 μM; [H1] 9.1, 12.7, 18.2 μM; independent of the histone H1 concentration", "text": "With reference to FIG. 53, FIG. 54, FIG. 55, and FIG. 56, ionic liquid-gate field-effect transistors (FET) were used for label-free enzyme activity and kinetics measurements. The proline directed kinase Cdk5 catalyzes the phosphorylation of substrate proteins (e.g., histone H1) in the presence of an activator (e.g., p25) and adenosine triphosphate (ATP). The hydrolysis of ATP results in the transfer of a single phosphate group to either a serine (Ser) or threonine (Thr) residue in the substrate protein and the release of a proton into solution, resulting in a change in solution pH. Moreover, ionic liquid-gate FETs measured change in solution pH as a function of the histone H1 concentration ([H1]) inferentially provide activity of Cdk5 under steady-state conditions. FET measurements were in quantitative agreement with a complementary assay that used radioactively labeled 32P-ATP as a reporter of Cdk5 activity. Time-series measurements of enzyme catalyzed phosphorylation as a function of [H1] […] The solid lines depict the reaction kinetics model that describes the time course of phosphorylation, while the dashed lines represent an estimate of the reaction velocity during the first 100 s after a change in the signal was detected.\nThe concentration of the Cdk5/p25 complex in these measurements was 3.8 μM (5-fold lower than the quantity used in FIG. 54 and FIG. 55). […]"}}, "data": [{"substance": "histone H1", "values": [{"measurement": "k (constant of kinase activity model versus histone H1 concentration)", "setting": "Cdk5/p25 [1]", "result": "12.1 ± 2.3", "unit": "µM"}, {"measurement": "k (constant of kinase activity model versus histone H1 concentration)", "setting": "Cdk5/p25 [2]", "result": "17.5 ± 1.3", "unit": "µM"}, {"measurement": "rate constant k1 (first order rate law)", "setting": "Cdk5/p25 [3]", "result": "0.18±0.02", "unit": "per min"}]}]}
